Experimental data from US7807396.

Columns and labels:
[1] = target: amyloid beta peptide Aβ1-40; assay: cell-based or functional assay
dynorphin B-9 = dynorphin B-9 (UniProt P01213)
[2] = target: human β-endorphin1-31 (human) (UniProt P01189); assay: cell-based or functional assay
[3] = target: Aβ added to the cultures at 10 µM in a non-fibrillar state; assay: cell-based or functional assay

Chain of human β-endorphin1-31 (human) (P01189 237-267 limits assumed): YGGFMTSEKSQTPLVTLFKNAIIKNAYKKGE

“recombinant rat insulysin with an N-terminal His6 affinity tag, expressed in baculovirus-infected Sf9 cells (from UniProt P35559 42-1019) (enzyme)” showed an inhibition of deposition of 125I-Aβ1-40 onto pre-deposited Aβ1-40 (% inhibition with 50 ng of insulysin) [1] of 50.
For trypsin, the “trypsin hydrolysis of the fluorogenic peptide Abz-GGFLRKHGQ-EDDnp (SEQ ID NO: 14)” value (dynorphin B-9) was “trypsin hydrolysis of the same peptide showed inhibition, not activation, by dynorphin B-9”.
For “insulysin purified from a thymoma cell line, EL-4 (from UniProt Q9JHR7 42-1019) (enzyme)”, the specific activity of enzyme purified from a thymoma cell line, EL-4 [2] was 3.3 µmols/min/mg.
In the case of “human neprilysin expressed from a lentiviral construct in primary neuronal cultures of neprilysin deficient mice (from UniProt P08473 2-750) (enzyme)”, the survival of neuronal cells subjected to Aβ induced neurotoxicity (% increase in cell survival) [3] is reported as 75.
